Experimental data reported in patent WO2004046187A2 (dated 2004).

T1: LexA DBD (made from the empty pBTM116 vector) (UniProt P0A7C2 1-202)
T1 construct: domain: LexA DBD; Control bait in yeast
T1 sequence: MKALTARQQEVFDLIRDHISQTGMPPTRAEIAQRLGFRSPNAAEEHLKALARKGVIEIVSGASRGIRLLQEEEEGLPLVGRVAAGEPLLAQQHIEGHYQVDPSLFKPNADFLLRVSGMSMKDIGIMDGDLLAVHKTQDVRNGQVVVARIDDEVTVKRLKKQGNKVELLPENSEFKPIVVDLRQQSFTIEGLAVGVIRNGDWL


Tests used:
[1] = target: T2, Recombinant oncogenic HRAS (G12V; residues 1 - 166) loaded with GppNp (human, UniProt P01112 1-166); experiment: SPR, BIAcore 2000; HRASG12V-GppNp immobilised on CM5 chip (about 1500 RU), purified scFv injected
T2 construct: range 1-166; this form was used as antigen throughout the in vitro assays; also called HRASG12V-GppNp; RASG12V-GppNp

[2] = target: T3, non-relevant antigen (β-galactosidase) bait in yeast (UniProt P00722 2-1024 = β-galactosidase); experiment: yeast two-hybrid (His-independent growth, β-gal activation)
T3 construct: Used as non-relevant bait in the yeast two-hybrid test
T3 sequence (P00722 2-1024 limits assumed): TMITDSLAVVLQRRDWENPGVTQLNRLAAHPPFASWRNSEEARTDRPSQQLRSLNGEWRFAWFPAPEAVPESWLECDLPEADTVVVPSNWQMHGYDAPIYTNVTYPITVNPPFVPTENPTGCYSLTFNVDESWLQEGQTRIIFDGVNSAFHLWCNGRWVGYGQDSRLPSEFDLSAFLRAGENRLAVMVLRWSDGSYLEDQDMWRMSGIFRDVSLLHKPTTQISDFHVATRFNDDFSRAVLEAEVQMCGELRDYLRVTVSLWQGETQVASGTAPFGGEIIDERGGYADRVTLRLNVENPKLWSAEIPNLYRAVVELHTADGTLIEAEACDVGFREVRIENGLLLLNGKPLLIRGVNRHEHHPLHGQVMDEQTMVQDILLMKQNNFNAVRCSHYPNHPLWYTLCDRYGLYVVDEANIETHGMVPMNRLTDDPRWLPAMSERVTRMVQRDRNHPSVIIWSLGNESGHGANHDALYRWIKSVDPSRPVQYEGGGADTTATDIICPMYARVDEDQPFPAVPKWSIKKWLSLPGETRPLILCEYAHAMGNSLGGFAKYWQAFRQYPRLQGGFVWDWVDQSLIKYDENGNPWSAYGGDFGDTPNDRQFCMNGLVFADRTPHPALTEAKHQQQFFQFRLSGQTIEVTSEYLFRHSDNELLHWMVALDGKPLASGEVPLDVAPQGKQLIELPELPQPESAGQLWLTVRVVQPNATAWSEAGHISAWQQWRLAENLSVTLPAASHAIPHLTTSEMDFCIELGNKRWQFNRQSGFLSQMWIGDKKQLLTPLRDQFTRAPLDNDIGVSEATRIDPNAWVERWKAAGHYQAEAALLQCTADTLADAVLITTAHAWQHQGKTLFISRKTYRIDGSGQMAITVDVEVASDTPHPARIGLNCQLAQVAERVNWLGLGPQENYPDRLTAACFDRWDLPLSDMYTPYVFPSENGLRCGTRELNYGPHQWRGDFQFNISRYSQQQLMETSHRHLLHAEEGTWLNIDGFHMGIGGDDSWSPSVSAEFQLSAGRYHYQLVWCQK

[3] = target: T1, LexA DBD (made from the empty pBTM116 …); experiment: as above

Binder	Kd [1] [nM]	binding result [2]	binding result [3]
anti-RAS scFvI21, purified from bacterial periplasm (pHEN2) (scFv, also called 121 (as the text prints it); ICAb 121; not shown: C-terminal His6-tag and myc-tag from pHEN2) scFv: EVQLLESGGGLVQPGGSLRLSCAASGFTFSSYAMSWVRQAPGKGLEWVSTISYGGSNTNYADSVKARFTISRDNSKNTLYLQMNSLRAEDTAVYYCAKGNNAFDYWGQGTLVTVSSGGGGSGGGGSGGGGSTDIQMTQSPSSLSASVGDRVTITCRASQSISSYLNWYQQKPGKAPKLLIYNASALQSGVPSRFSGSGSGTDFTLTISSLQPEDFATYYCQQYTSTPRTFGQGTKVEIKR	2160		
scFvI21-VP16 activation domain fusion (scFv, In the mammalian vector the scFv stands on the N-terminal side of VP16; the same id is used for the yeast pVP16 prey; also called 121; ICAb 121) scFv: EVQLLESGGGLVQPGGSLRLSCAASGFTFSSYAMSWVRQAPGKGLEWVSTISYGGSNTNYADSVKARFTISRDNSKNTLYLQMNSLRAEDTAVYYCAKGNNAFDYWGQGTLVTVSSGGGGSGGGGSGGGGSTDIQMTQSPSSLSASVGDRVTITCRASQSISSYLNWYQQKPGKAPKLLIYNASALQSGVPSRFSGSGSGTDFTLTISSLQPEDFATYYCQQYTSTPRTFGQGTKVEIKR		no binding	no binding
